Reference: patent US20180371107A1 (published 2018)

T1: mouse zymogen NSP4 (mZ-NSP4) (mouse), Q14B24
T1 chain: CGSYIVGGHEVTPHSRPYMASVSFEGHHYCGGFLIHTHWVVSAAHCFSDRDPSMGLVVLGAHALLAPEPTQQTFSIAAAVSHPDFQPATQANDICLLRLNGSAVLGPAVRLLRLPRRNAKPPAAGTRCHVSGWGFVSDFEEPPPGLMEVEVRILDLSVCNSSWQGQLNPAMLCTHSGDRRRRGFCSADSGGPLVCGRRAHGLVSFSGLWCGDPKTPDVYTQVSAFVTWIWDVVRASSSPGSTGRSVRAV

T2: mouse NSP4 (mNSP4), form not stated in Example 6 (mouse, UniProt Q14B24 40-284, limits assumed)
T2 construct: also called recombinant mouse NSP4; purified mouse NSP4
T2 sequence (looked up): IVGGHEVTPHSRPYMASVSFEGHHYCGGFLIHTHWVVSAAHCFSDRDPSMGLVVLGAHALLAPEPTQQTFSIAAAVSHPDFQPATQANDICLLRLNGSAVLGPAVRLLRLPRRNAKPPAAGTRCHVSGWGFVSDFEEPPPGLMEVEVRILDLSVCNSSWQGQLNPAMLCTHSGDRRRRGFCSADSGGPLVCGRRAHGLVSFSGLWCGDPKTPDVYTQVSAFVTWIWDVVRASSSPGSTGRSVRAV

T3: mouse active NSP4 (mA-NSP4) (mouse, UniProt Q14B24 40-284)
T3 construct: mature; Made from mZ by enteropeptidase cleavage; also called mature form of mouse NSP4
T3 sequence (looked up): T2 sequence (looked up)

T4: mouse zymogen NSP4 (mZ-NSP4) (mouse, UniProt Q14B24 36-284)
T4 construct: Expressed in CHO cells; also called precursor form of mouse NSP4; not shown: N-terminal FLAG tag removable by enteropeptidase (cleavage after Asp-Asp-Asp-Asp-Lys)
T4 sequence (looked up): T1 chain

T5: human NSP4 (hNSP4), form not stated in Example 6 (human, UniProt Q6UWY2 34-283, limits assumed)
T5 sequence (looked up): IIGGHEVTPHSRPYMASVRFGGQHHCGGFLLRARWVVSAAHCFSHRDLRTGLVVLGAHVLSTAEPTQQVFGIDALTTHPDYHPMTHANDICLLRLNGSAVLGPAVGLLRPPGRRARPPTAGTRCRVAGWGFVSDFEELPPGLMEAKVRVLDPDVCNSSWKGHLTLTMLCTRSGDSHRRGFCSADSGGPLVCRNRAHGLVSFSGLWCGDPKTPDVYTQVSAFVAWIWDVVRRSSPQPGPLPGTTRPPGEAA

B1: anti-NSP4 antibody 5-1 (antibody, V domains shown)
VH: EVQLVESGGGLVQPGGSLRLSCAASGFTFSGSGIHWVRQAPGKGLEWVAWISPTGGNTYYADSVKGRFTISADTSKNTAYLQMNSLRAEDTAVYYCAKSLFHNVAFDYWGQGTLVTVSS
VL: DIQMTQSPSSLSASVGDRVTITCRASQDVSTAVAWYQQKPGKAPKLLIYSASFLYSGVPSRFSGSGSGTDFTLTISSLQPEDFATYYCQQSYTTPPTFGQGTKVEIKR
notes: also called Ab 5-1; Ab5-1
B2: anti-NSP4 antibody 5-3 (antibody, human IgG1, V domains shown)
VH: EVQLVESGGGLVQPGGSLRLSCAASGFTFSGNDISWVRQAPGKGLEWVAGISPYGGSTYYADSVKGRFTISADTSKNTAYLQMNSLRAEDTAVYYCARRVSFYSRHAGMDYWGQGTLVTVSS
VL: B1 VL
B3: anti-NSP4 antibody 5-4 (antibody, human IgG1, V domains shown)
VH: EVQLVESGGGLVQPGGSLRLSCAASGFTFTSYAISWVRQAPGKGLEWVAGISPSNGYTNYADSVKGRFTISADTSKNTAYLQMNSLRAEDTAVYYCARAGRWTHSDIDYWGQGTLVTVSS
VL: B1 VL
notes: also called Ab 5-4
B4: anti-NSP4 antibody 3-2 (antibody, V domains shown)
VH: EVQLVESGGGLVQPGGSLRLSCAASGFTFSDYSISWVRQAPGKGLEWVGEINPAGGATYYADSVKGRFTISADTSKNTAYLQMNSLRAEDTAVYYCARGDFPFWSDAYYVMDYWGQGTLVTVSS
VL: B1 VL
notes: also called Ab 3-2
B5: anti-NSP4 antibody 3-5 (antibody, V domains shown)
VH: EVQLVESGGGLVQPGGSLRLSCAASGFTFSDNDISWVRQAPGKGLEWVGSISPDNGDTNYADSVKGRFTISADTSKNTAYLQMNSLRAEDTAVYYCARDDVPAVFTSAMDYWGQGTLVTVSS
VL: B1 VL
notes: also called Ab 3-5; Ab35

Tests used:
[1] = target: T1, mouse zymogen NSP4 (mZ-NSP4) (mouse), …; assay: BLI; no affinity; settings: chains VH:VL; remark: other sources report otherwise
[2] = target: T2, mouse NSP4 (mNSP4), form not stated in …; assay: phage competition binding assay (phage IC50), soluble mNSP4 competitor
[3] = target: T3, mouse active NSP4 (mA-NSP4); assay: competition phage ELISA (phage IC50): phage clone preincubated with soluble mA-NSP4, then on NSP4-coated wells
Method: Phage at sub-saturating concentrations were first incubated with increasing concentrations of target NSP4 antigen (either hZ, hA, mZ, or mA) for 1 to 2 hour(s), and then transferred to wells coated with the same NSP4 antigen to capture the unbound phage.
Briefly, 2 ug/ml of NSP4 (hZ, hA, mZ, or mA variants) was coated on wells overnight at 4° C. in PBS supplemented with 0.5% BSA. Each individual phage clone (at 0.01 OD/ml) was purified and incubated with increasing concentrations of soluble NSP4 protein for 2 h at room temperature before being placed into wells coated with immobilized NSP4 protein for 15 min at room temperature. The wells were then washed with PBS supplemented with 0.05% Tween-20 for 10 times and developed using anti-M13 phage antibody conjugated with HRP (New England Biolabs). […] The soluble phage:antigen complex, with higher likelihood to be high-affinity phage clones, would thus be removed through successive washing steps, resulting in lower A450 signal at any given concentration of soluble antigen. Consequently, higher affinity phage clones would have a lower phage IC50 value, with a concomitant leftward-shift in the binding curves, compared to lower affinity phage clones.

[4] = target: T4, mouse zymogen NSP4 (mZ-NSP4); assay: competition phage ELISA (phage IC50): phage clone preincubated with soluble mZ-NSP4, then on NSP4-coated wells
[5] = target: T5, human NSP4 (hNSP4), form not stated in …; assay: phage competition binding assay (phage IC50), soluble hNSP4 competitor

Binder	Kd [1]	IC50 [2]	IC50 [3]	IC50 [4]	IC50 [5]
B1	> 1000 nM	18.7 nM	9.93 nM	–	–
B2	> 1000 nM	–	319 nM	–	–
B3	> 1000 nM	–	60.5 nM	–	–
B4	–	–	–	0.15 nM	–
B5	–	0.131 nM	–	0.18 nM	32.8 nM
